Our source for the fold reduction in colony expansion of the 1:1 coswarm (donor CCS06 with CCS05-derived recipient producing DVR-BB and EVR-HI) against the monoculture swarm of the recipient and fold reduction in colony expansion of the 1:1 coswarm (donor CCS06 with CCS05-derived recipient producing DVR-HI and EVR-HI) against the monoculture swarm of the recipient values is US20190201479A1.

This experiment addresses IdsE of strain BB2000 with amino acids 147-169 (variable region) replaced by the equivalent sequence of IdsE from strain HI4320 (Proteus mirabilis strain BB2000; Proteus mirabilis strain HI4320). Description: cell-based or functional assay.

For “IdsD from Proteus mirabilis strain BB2000 (variable region from BB2000)”, the fold reduction in colony expansion of the 1:1 coswarm (donor CCS06 with CCS05-derived recipient producing DVR-BB and EVR-HI) against the monoculture swarm of the recipient came to 3.12 fold; the fold reduction in colony expansion of the 1:1 coswarm (donor CCS06 with CCS05-derived recipient producing DVR-HI and EVR-HI) against the monoculture swarm of the recipient was 3.35 fold.
